Here are results for two molecules from PMC11285941.

The target in this assay is ALTO with a NanoBiT tag at its N-terminus (Merkel cell polyomavirus). As to the kind of experiment: split reporter (BiFC, NanoBiT); NanoBiT in live HEK293 cells, 50 ng LgBiT + 50 ng SmBiT plasmid, 20-24 hours after transfection, NanoGlo reagent, luminescence; an interaction counts when the reading is tenfold above the LgBiT construct with the SmBiT negative control.

As for “STING-LgBiT (from UniProt Q86WV6 1-379) (natural protein)”, the luminescence against the LgBiT-tagged construct with the SmBiT negative control was more than 10 fold.

B1: LgBiT-TBK1 (enzyme)
chain: MQSTSNHLWLLSDILGQGATANVFRGRHKKTGDLFAIKVFNNISFLRPVDVQMREFEVLKKLNHKNIVKLFAIEEETTTRHKVLIMEFCPCGSLYTVLEEPSNAYGLPESEFLIVLRDVVGGMNHLRENGIVHRDIKPGNIMRVIGEDGQSVYKLTDFGAARELEDDEQFVSLYGTEEYLHPDMYERAVLRKDHQKKYGATVDLWSIGVTFYHAATGSLPFRPFEGPRRNKEVMYKIITGKPSGAISGVQKAENGPIDWSGDMPVSCSLSRGLQVLLTPVLANILEADQEKCWGFDQFFAETSDILHRMVIHVFSLQQMTAHKIYIHSYNTATIFHELVYKQTKIISSNQELIYEGRRLVLEPGRLAQHFPKTTEENPIFVVSREPLNTIGLIYEKISLPKVHPRYDLDGDASMAKAITGVVCYACRIASTLLLYQELMRKGIRWLIELIKDDYNETVHKKTEVVITLDFCIRNIEKTVKVYEKLMKINLEAAELGEISDIHTKLLRLSSSQGTIETSLQDIDSRLSPGGSLADAWAHQEGTHPKDRNVEKLQVLLNCMTEIYYQFKKDKAERRLAYNEEQIHKFDKQKLYYHATKAMTHFTDECVKKYEAFLNKSEEWIRKMLHLRKQLLSLTNQCFDIEEEVSKYQEYTNELQETLPQKMFTASSGIKHTMTPIYPSSNTLVEMTLGMKKLKEEMEGVVKELAENNHILERFGSLTMDGGLRNVDCL
For B1, the luminescence against the LgBiT-tagged construct with the SmBiT negative control is more than 10 fold.
